Values of other authors as cited in paper PMC3925188.
Where “and” joins values, the source holds several entries; their conditions need not be identical. Identical values can stand only once.

Biological target: Histone H3K4me3 H3K4me3 (Homo sapiens) (UniProt P68431)

KMT2A PHD3, sequence (Q03164 1566-1627): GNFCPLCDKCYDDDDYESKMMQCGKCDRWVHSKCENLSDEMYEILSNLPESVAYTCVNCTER

For KMT2A PHD3 (from UniProt Q03164), the Kd is given as 30 µM and 19 µM and 4 µM.
